Measured values: patent publication US8252981B2 (Athenix Corp., priority 2006, dated 2012)

What follows are molecules tested on BL21*DE3 competent E. coli cells (assay: Selection for glyphosate resistance on M63+ plates containing 150 mM glyphosate). Details: E. coli clones expressing the variant, 150 mM glyphosate plates.
Assay type: cell-based
Protocol: The mutagenized syngrg23 libraries were transformed into E. coli strain BL21*DE3 star (Invitrogen). Following transformation, individual colonies were plated on 1× M63 medium containing 150 mM glyphosate to select for clones that had retained enzymatic activity and growth tolerance.
Library ligations were transformed into BL21*DE3 competent E. coli cells (Invitrogen). The transformations were performed according to the manufacturer's instructions with the following modifications. After incubation for 1 hour at 37° C. in SOC medium, the cells were sedimented by centrifugation (5 minutes, 1000×g, 4° C.). The cells were washed with 1 ml M63+, centrifuged again, and the supernatant decanted. The cells were washed a second time with 1 ml M63+ and resuspended in 200 ul M63+.
The plates were incubated for 36 hours at 37° C.
Colonies identified on glyphosate plates were pinned into 96-well blocks containing LB medium and were grown to an O.D. of about 0.6. IPTG was then added (0.5 mM) and the blocks were incubated overnight at 20° C. to induce protein expression. Protein extracts were prepared from the cell pellets using POP culture reagent (Novagen) and Lysonase (Novagen), and the enzymatic activity in the crude lysates was measured after heating the extracts for 30 min at 37° C.

Molecule | glyphosate resistance (in words)
GRG23(L3P1.B20): GRG23 variant, SEQ ID NO:21; mutation at V206 (protein, GRG23(L3P1.B20), mutation at V206) METDRLVIPGSKSITNRALLLAAAAKGTSVLVRPLVSADTSAFKTAIQALGANVSADGDNWVVEGLGQAPHLDADIWCEDAGTVARFLPPFVAAGQGKFTVDGSEQLRRRPLRPLVDGIRHLGARVSSEQLPLTIEASGLAGGEYEIEAHQSSQFASGLIMAAPYARQGLRVRIPNPVSQPYLTMTLRMMRDFGLETSTDGATVSIPPGRYTARRYEIEPDASTASYFAAASAVSGRSFEFQGLGTDSIQGDTSFFNVLGRLGAEVHWAPNSVTISGPERLNGDIEVDMGEISDTFMTLAAIAPLADGPITITNIGHARLKESDRISAMETNLRTLGVQTDVGHDWMRIYPSTPHGGRVNCHRDHRIAMAFSILGLRVDGITLDDPQCVGKTFPGFFDYLGRLFPEKALTLPG | retained glyphosate resistance
GRG23(L3P1.023): GRG23 variant, SEQ ID NO:27; R5→H (protein, GRG23(L3P1.O23), R5→H) METDHLVIPGSKSITNRALLLAAAAKGTSVLVRPLVSADTSAFKTAIQALGANVSADGDNWVVEGLGQAPHLDADIWCEDAGTVARFLPPFVAAGQGKFTVDGSEQLRRRPLRPLVDGIRHLGARVSSEQLPLTIEASGLAGGEYEIEAHQSSQFASGLIMAAPYARQGLRVRIPNPVSQPYLTMTLRMMRDFGLETSTDGATVSVPPGRYTARRYEIEPDASTASYFAAASAVSGRSFEFQGLGTDSIQGDTSFFNVLGRLGAEVHWAPNSVTISGPERLNGDIEVDMGEISDTFMTLAAIAPLADGPITITNIGHARLKESDRISAMETNLRTLGVQTDVGHDWMRIYPSTPHGGRVNCHRDHRIAMAFSILGLRVDGITLDDPQCVGKTFPGFFDYLGRLFPEKALTLPG | retained glyphosate resistance
grg23(L3P1B3): GRG23 variant, SEQ ID NO:23; D75→H, E217→K (protein, GRG23(L3P1.B3), D75→H, E217→K) METDRLVIPGSKSITNRALLLAAAAKGTSVLVRPLVSADTSAFKTAIQALGANVSADGDNWVVEGLGQAPHLDAHIWCEDAGTVARFLPPFVAAGQGKFTVDGSEQLRRRPLRPLVDGIRHLGARVSSEQLPLTIEASGLAGGEYEIEAHQSSQFASGLIMAAPYARQGLRVRIPNPVSQPYLTMTLRMMRDFGLETSTDGATVSVPPGRYTARRYKIEPDASTASYFAAASAVSGRSFEFQGLGTDSIQGDTSFFNVLGRLGAEVHWAPNSVTISGPERLNGDIEVDMGEISDTFMTLAAIAPLADGPITITNIGHARLKESDRISAMETNLRTLGVQTDVGHDWMRIYPSTPHGGRVNCHRDHRIAMAFSILGLRVDGITLDDPQCVGKTFPGFFDYLGRLFPEKALTLPG | retained glyphosate resistance
GRG23(L3P1.F18): GRG23 variant, SEQ ID NO:25; T274→I (protein, GRG23(L3P1.F18), T274→I) METDRLVIPGSKSITNRALLLAAAAKGTSVLVRPLVSADTSAFKTAIQALGANVSADGDNWVVEGLGQAPHLDADIWCEDAGTVARFLPPFVAAGQGKFTVDGSEQLRRRPLRPLVDGIRHLGARVSSEQLPLTIEASGLAGGEYEIEAHQSSQFASGLIMAAPYARQGLRVRIPNPVSQPYLTMTLRMMRDFGLETSTDGATVSVPPGRYTARRYEIEPDASTASYFAAASAVSGRSFEFQGLGTDSIQGDTSFFNVLGRLGAEVHWAPNSVIISGPERLNGDIEVDMGEISDTFMTLAAIAPLADGPITITNIGHARLKESDRISAMETNLRTLGVQTDVGHDWMRIYPSTPHGGRVNCHRDHRIAMAFSILGLRVDGITLDDPQCVGKTFPGFFDYLGRLFPEKALTLPG | retained glyphosate resistance
